Reference: patent US20210002363A1 (PHANES THERAPEUTICS, published 2021)

Columns and labels:
[1] = biological target: T1, Recombinant extracellular domain of human FOLR1 (Novoprotein, Cat#: C784) (human, UniProt P15328 25-233, limits assumed); experiment: ELISA on plate-coated recombinant human FOLR1 extracellular domain; anti-human IgG-HRP; O.D. 450 nm
T1 construct: Bought reagent; also called recombinant FOLR1; immobilized FOLR1 extracellular domain
Protocol: The Purified chimeric mAbs were tested in an ELISA assay for their ability to bind to immobilized human FOLR1. Recombinant extracellular domain of human FOLR1 (Novoprotein, Cat#: C784) in carbonate coating buffer was coated on a 96-well plate at room temperature for 1 hour. The plate is blocked by 5% BSA in TBST for 1 hour at room temperature. In each well of an individual plate, mAbs at various concentrations were incubated for 1 hour at room temperature. The plate was washed and the binding to FOLR1 was detected by anti-human IgG conjugated to horseradish peroxidase (hIgG-HRP) (ThermoFisher Scientific, Cat#: H10007) with incubation for 1 hour at room temperature. Then after washing, the ELISA was developed using One-step Detection Solution (ThermoFisher Scientific, Cat#: 34028) and measured as the absorbance at 450 nm.

[2] = biological target: T2, FOLR1 on SK-OV-3 cells (ATCC HTB-77) (Homo sapiens (Human), UniProt P15328 25-234); experiment: FACS on SK-OV-3 cells; Alexa Fluor 488 F(ab')2 goat anti-human IgG Fc; MFI
T2 construct: Endogenous FOLR1 of the cell line; also called cells that are known to express FOLR1
Protocol: To assess the binding of the chimeric anti-FOLR1 mAbs to cells that are known to express FOLR1, SK-OV-3 (ATCC® HTB-77™) cells were plated at 80,000 cells per well on a 96-well non-binding U-bottom plate (Greiner Bio-One, Cat#: 650901). In some experiments, 90,000 cells per well were used. The cells were incubated in 50 μL FACS buffer (HBSS with 0.1% BSA and 0.05% sodium azide) containing mAbs at different concentrations on ice for 15 minutes. After wash, cells were incubated in 50 μL FACS buffer containing 3.5 μg/mL F(ab′)2-Goat anti-Human IgG Fc conjugated to Alexa Fluor® 488 (Invitrogen, Cat#: H10120) on ice for 15 minutes in dark and washed again. Cells were analyzed using an Attune NxT flow cytometer. MFI, mean fluorescence intensity.

[3] = biological target: T1, Recombinant extracellular domain of …; experiment: SPR (Biacore 8k), mAb captured on protein A chip, recombinant FOLR1 as analyte, 1:1 model
Protocol: The interaction of the chimeric anti-FOLR1 mAbs and FOLR1 was measured by Surface Plasmon Resonance (SPR) (Biacore 8k, GE Healthcare). Briefly, an anti-FOLR1 mAb was immobilized to a protein A sensor chip (GE Healthcare, Cat#: 29-1275-56) in HBS-P buffer (0.01 M HEPES pH 7.4, 0.15 M NaCl, 0.05% v/v Surfactant P20) with an injection flow rate at […]. The recombinant FOLR1 (Novoprotein, Cat#: C784) at variant concentrations was loaded with the flow rate of 30 μL/min in HBS-P buffer. Following antigen loading, the surface was regenerated with 10 mM glycine-HCl (pH 1.5). Sensor grams were fit with a 1:1 binding model using Biacore 8k evaluation software (GE Healthcare).

[4] = biological target: T1, Recombinant extracellular domain of …; experiment: ELISA on immobilized FOLR1 extracellular domain; O.D. 450 nm

T1 sequence (P15328 25-233 limits assumed): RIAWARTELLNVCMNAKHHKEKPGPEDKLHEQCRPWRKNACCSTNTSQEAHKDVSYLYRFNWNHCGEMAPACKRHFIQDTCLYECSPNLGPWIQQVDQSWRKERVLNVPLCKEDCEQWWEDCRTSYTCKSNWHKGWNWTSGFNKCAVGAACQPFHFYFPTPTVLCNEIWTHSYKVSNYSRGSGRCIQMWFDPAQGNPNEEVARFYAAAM
T2 sequence (P15328 25-234 limits assumed): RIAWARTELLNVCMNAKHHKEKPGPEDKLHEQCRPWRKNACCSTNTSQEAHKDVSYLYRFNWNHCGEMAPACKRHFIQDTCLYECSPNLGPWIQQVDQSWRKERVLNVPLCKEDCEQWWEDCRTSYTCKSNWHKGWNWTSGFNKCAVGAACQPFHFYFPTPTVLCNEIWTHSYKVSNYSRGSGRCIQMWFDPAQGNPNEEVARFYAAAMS

Row | EC50 (read off the curve) [1] [nM] | EC50 (read off the curve) [2] [nM] | Kd [3] [nM] | binding result [4] | Binder
1 | ~0.2 | ~0.5 | 0.547 | – | chimeric anti-FOLR1 mAb F4 (antibody, V domains shown, also called Chimeric mAb F4) VH: EVQLVESGGGLVKPGGSLKLSCAASGFTFSDYGMHWVRQAPEKGLEWVAFISSGSNTIYYADIVKGRFAISRDNAKNTLFLQMASLRSEDTALYYCARLAEWDVAYWGQGTLVTVSA VL: DIVLTQSPATLSVTPGDRISLSCRASQNINNNLHWYQQKSHESPRLLIKFASQSISGIPSRFSGSGSGTDFTLNINGVETEDFGMYFCQQIYSWPQLTFGAGTRLELK
2 | – | – | 1 | – | chimeric anti-FOLR1 mAb F20 (antibody, V domains shown, also called Chimeric mAb F20) VH: QVQLQQSGAELVKPGASVQLSCKASGYTFASYYLYWVKQRPGQGLEWIGEINPRSGGTNFNEKFKSKATVTVDKSSSTAYMQLSSLTSEDSAVYYCSRSGRLRGFYTMDYWGQGTSVTVSS VL: NIVMTQSPKSMSVSVGERVTLSCKAGENVGSYVSWYQQKPEQSPELLIYGASNRYTGVPDRFTGSGSATDFTLTISSVQAEDLADYYCGQTYRFLTFGAGTKLELK
3 | – | – | 11.8 | – | chimeric anti-FOLR1 mAb F19 (antibody, V domains shown, also called Chimeric mAb F19) VH: EVKLDETGGGLVQPGRPMKLSCVASGFTFSDYWMNWVRQSPDKGLEWVAQIGNKFHNYETYYSDSVKGRFTISRDDSKSSVYLQMNSLRVEDTGIYYCTKLGRGYYVMDYWGQGTSVTVSS VL: DIQMTQTTSSLSASLGDRVTLNCRASQDITNHLNWFQQKPDGTFQLLIYYTSRLHSGVPSRFSGSGSGTDYSLTISNLEQEDFATYFCQQDSQHPWTFGGGTKLEIK
4 | ~0.1 | ~0.2 | 2.33 | – | chimeric anti-FOLR1 mAb F7 (antibody, V domains shown, also called Chimeric mAb F7) VH: EFQLQQSGPELVKPGASVKISCKASGYSFTDYNMNWVKQSNGKSLEWIGVIDPNYGTTNYNQKFVGKATLTVDQSSITAYMQLNSLTAEDSAVYFCAIKGYGNPAAYWGQGTLVTVSA VL: DIQMTQSPSSLSASLGGKVTITCKASQDINKYLAWYQHEPGKGPRLLIRYTSILESGIPSRFSGSGSGRDYSFSISNLEPEDIATYYCLQYYNLWTFGGGTKLEIK
5 | – | – | – | binds | F5-H3L1 (antibody, V domains shown, also called humanized F5 mAb H3L1) VH: EVQLVESGGGLVQPGGSLRLSCAVSGFTFSNYGMSWVRQAPGKGLEWVATISSGGSYTYYPDSVKGRFTISRDNSKNTLYLQMSSLRAEDTAVYYCSTQGSSGYVGYWGQGTLVTVSS VL: DIQMTQSPSSVSASVGDRVTITCKASQDITNFIGWYQHKPGKAPKLLISYTSILESGVPSRFSGSGSGRDYTLTISSLQPEDFATYYCLQYYNLWTFGGGTKVEIK
6 | – | – | – | binds | F5-H3L2 (antibody, V domains shown, also called humanized F5 mAb H3L2) VH: EVQLVESGGGLVQPGGSLRLSCAVSGFTFSNYGMSWVRQAPGKGLEWVATISSGGSYTYYPDSVKGRFTISRDNSKNTLYLQMSSLRAEDTAVYYCSTQGSSGYVGYWGQGTLVTVSS VL: DIQMTQSPSSVSASVGDRVTITCKASQDITNFIGWYQHKPGKAPKLLISYTSILESGVPSRFSGSGSGTDYTLTISSLQPEDFATYYCLQYYNLWTFGGGTKVEIK
7 | – | – | 0.721 | – | chimeric anti-FOLR1 mAb F8 (antibody, V domains shown, also called Chimeric mAb F8) VH: EVMLVESGGGLVKPGGSLKLSCVASGFTLSTYAMSWVRQTPEKRLEWVATISGGGGDTYHLDTVKGRFTISRDNAKNTLYLQMSSLRSEDTALYYCARQSHYGSSYYFDNWGQGTTLTVSS VL: DIQMTQSPASLSASVGEIVTIICRVSENIDSYLAWYQQKQGKSPQLLVYAATNLADGVPSRFSGSGSGSQYSLKINSLQSEDVARYYCQHYYTTPPTFGGGTKLDIK
